For experiment [1], the target named is EGF456 (TM456) component of the thrombin-thrombomodulin fusion proteins (human) (UniProt P07204).
In experiment [2] the target is fragment TM456 of human thrombomodulin (soluble EGF456 domains) (human) (UniProt P07204).
Experiment [3] shares this target. Description: SPR; biotinyl-TM456 on a neutravidin-coated CM5 chip (177 RU); thrombin injected at 30 μl/min, contact and dissociation 120 sec; 25 °C; Biacore-S200; TM456 loaded in 10 mM HEPES pH 7.4, 150 mM NaCl, 2.5 mM Ca2+, 0.05% Tween20; Kd from response units at the steady state. (In general: Surface plasmon resonance follows binding to a sensor surface in real time, without labels.)

For experiment [4], the target named is Full-length rabbit thrombomodulin (TM) (rabbit).

By Kd is commonly meant the concentration at which binding is half-saturated. Low readings indicate higher affinity, high ones lower affinity.

With “thrombin W215A/E217A (WE) component of the fusion protein FP31WE (domain or fragment)”, the kcat/KM of protein C activation by FP31WE (thrombin WE fused to EGF456, 31-residue linker) in experiment [1] stood at 550 M⁻¹ s⁻¹.
As for thrombin mutant W215A (enzyme), the kcat/KM of protein C activation by FP31W215A (thrombin W215A fused to EGF456, 31-residue linker) in experiment [1] was determined as 3300 M⁻¹ s⁻¹. Also, the kcat/KM of protein C activation by thrombin W215A with 500 nM TM456 in experiment [2] was determined as 3200 M⁻¹ s⁻¹. For the same substance, the Kd in experiment [3] is 23 nM.
Regarding “thrombin double mutant W215A/E217A (WE) (enzyme)”, in experiment [2], the kcat/KM of protein C activation by thrombin WE with 500 nM TM456 came to 380 M⁻¹ s⁻¹. In experiment [3], this substance came in with a Kd of 31 nM.
Consider thrombin wild-type (enzyme), for which, in experiment [1], the kcat/KM of cleavage of the PAR1 fragment by FP7 (thrombin fused to TM456, 7-residue linker) worked out at 5.8e+06 M⁻¹ s⁻¹; the kcat/KM of cleavage of the PAR1 fragment by FP17 (thrombin fused to TM456, 17-residue linker) came to 2e+06 M⁻¹ s⁻¹; the kcat/KM of cleavage of the PAR1 fragment by FP31 (thrombin fused to TM456, 31-residue linker) was determined as 300000 M⁻¹ s⁻¹; the kcat/KM of cleavage of the PAR1 fragment by FP41 (thrombin fused to TM456, 41-residue linker) turned out to be 950000 M⁻¹ s⁻¹. Moreover, in experiment [1], the kcat/KM of cleavage of the PAR1 fragment by FP55 (thrombin fused to TM456, 55-residue linker) was 2.3e+06 M⁻¹ s⁻¹; the kcat/KM of cleavage of the PAR1 fragment by FP69 (thrombin fused to TM456, 69-residue linker) worked out at 1.4e+07 M⁻¹ s⁻¹; the kcat/KM of fibrinopeptide A release by FP7 (thrombin fused to TM456, 7-residue linker) was determined as 6.7e+06 M⁻¹ s⁻¹; the kcat/KM of fibrinopeptide A release by FP17 (thrombin fused to TM456, 17-residue linker) worked out at 1.55e+06 M⁻¹ s⁻¹. Besides, in experiment [1], the kcat/KM of fibrinopeptide A release by FP31 (thrombin fused to TM456, 31-residue linker) stood at 300000 M⁻¹ s⁻¹; the kcat/KM of fibrinopeptide A release by FP41 (thrombin fused to TM456, 41-residue linker) turned out to be 600000 M⁻¹ s⁻¹; the kcat/KM of fibrinopeptide A release by FP55 (thrombin fused to TM456, 55-residue linker) came out at 1.3e+06 M⁻¹ s⁻¹; the kcat/KM of fibrinopeptide A release by FP69 (thrombin fused to TM456, 69-residue linker) came out at 1.1e+07 M⁻¹ s⁻¹. In experiment [1], the kcat/KM of protein C activation by FP7 (thrombin fused to TM456, 7-residue linker) was found to be 1100 M⁻¹ s⁻¹; the kcat/KM of protein C activation by FP17 (thrombin fused to TM456, 17-residue linker) was found to be 6100 M⁻¹ s⁻¹; the kcat/KM of protein C activation by FP31 (thrombin fused to TM456, 31-residue linker) came to 85000 M⁻¹ s⁻¹; the kcat/KM of protein C activation by FP41 (thrombin fused to TM456, 41-residue linker) stood at 107000 M⁻¹ s⁻¹. In addition, in experiment [1], the kcat/KM of protein C activation by FP55 (thrombin fused to TM456, 55-residue linker) was determined as 120000 M⁻¹ s⁻¹ and the kcat/KM of protein C activation by FP69 (thrombin fused to TM456, 69-residue linker) was 74000 M⁻¹ s⁻¹. Moreover, the kcat/KM of protein C activation by thrombin with 500 nM TM456 in experiment [2] turned out to be 80000 M⁻¹ s⁻¹. The kcat/KM of protein C activation by thrombin with TM in experiment [4] amounted to 230000 M⁻¹ s⁻¹. In experiment [3], this substance displayed a Kd of 18 nM.

Values taken from PMC5353707.
